Experimental data taken from US20240254260A1 (ISU ABXIS, published 2024).

Target: T1, ASM protein present in the blood plasma of APP/PS1 mice (mouse, UniProt Q04519 45-626, limits assumed)
T1 sequence: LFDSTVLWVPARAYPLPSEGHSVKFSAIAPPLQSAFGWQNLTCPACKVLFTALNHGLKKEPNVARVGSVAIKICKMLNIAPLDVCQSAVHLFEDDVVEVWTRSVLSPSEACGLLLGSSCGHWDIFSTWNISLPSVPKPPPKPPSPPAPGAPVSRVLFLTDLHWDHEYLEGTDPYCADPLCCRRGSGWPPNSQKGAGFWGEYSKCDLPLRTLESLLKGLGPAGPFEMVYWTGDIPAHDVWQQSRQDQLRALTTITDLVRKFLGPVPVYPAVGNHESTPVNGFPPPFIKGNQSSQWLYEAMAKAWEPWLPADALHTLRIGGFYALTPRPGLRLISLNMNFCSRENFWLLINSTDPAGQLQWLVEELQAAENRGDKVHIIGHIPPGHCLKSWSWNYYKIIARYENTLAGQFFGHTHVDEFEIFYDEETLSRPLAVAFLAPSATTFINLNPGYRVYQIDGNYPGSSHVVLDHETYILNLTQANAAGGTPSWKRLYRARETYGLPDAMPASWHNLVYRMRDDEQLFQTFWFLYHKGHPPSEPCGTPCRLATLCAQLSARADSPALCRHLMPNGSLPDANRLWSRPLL
Experiment: cell-based or functional assay

B1: antibody #9104 (antibody, mouse IgG1, V domains shown)
VH: EVQLLESGGGLVQPGGSLRLSCAASGFTFSNYYMSWVRQAPGKGLEWVSGIYYGSGNIYYADSVKGRFTISRDNSKNTLYLQMNSLRAEDTAVYYCARDTPGFDYWGQGTLVTVSS
VL: QSVLTQPPSASGTPGQRVTISCTGSSSNIGNNAVNWYQQLPGTAPKLLIYYDSHRPSGVPDRFSGSKSGTSASLAISGLRSEDEADYYCGAWDYSLSAYVFGGGTKLTVLG
In the case of B1, the “activity of the ASM protein in blood plasma of APP/PS1 mice after administration of 50 mg/kg antibody (UPLC), relative to the negative control group” value is reported as ~64%.
